The results in this text go back to PMC7994366, “LRRK2-phosphorylated Rab10 sequesters Myosin Va with RILPL2 during ciliogenesis blockade” (Life Science Alliance, 2021).

Experiment [1] has as its target His6 Myosin Va GTD (1,464–1,855) (UniProt Q9Y4I1). Description: MST; Monolith NT.115; RED-NHS labelled His6-MyoVa GTD fixed at 100 nM, 16 serial dilutions of the unlabelled Rab/Mst3 reaction mixture (+ATP phosphorylated 2 h at 27°C; -ATP control); 50 mM Hepes pH 7.5, 5% glycerol, 150 mM NaCl, 5 mM MgCl2, 0.1 mM TCEP, GTP, 6 μM BSA, 0.01% Tween-20; 30 min in the dark at 25°C; Mst3 kinase present.

In experiment [2] the target is LRRK2-phosphorylated Rab10 (pRab10) (human (endogenous in HEK293T)) (UniProt P61026).
The target of experiment [3] is T1, His6 Myosin Va GTD (1,464–1,855) (UniProt Q9Y4I1 1464-1855, labeled with RED-NHS 2nd Generation (amine reactive) dye (NT-647)).
T1 chain: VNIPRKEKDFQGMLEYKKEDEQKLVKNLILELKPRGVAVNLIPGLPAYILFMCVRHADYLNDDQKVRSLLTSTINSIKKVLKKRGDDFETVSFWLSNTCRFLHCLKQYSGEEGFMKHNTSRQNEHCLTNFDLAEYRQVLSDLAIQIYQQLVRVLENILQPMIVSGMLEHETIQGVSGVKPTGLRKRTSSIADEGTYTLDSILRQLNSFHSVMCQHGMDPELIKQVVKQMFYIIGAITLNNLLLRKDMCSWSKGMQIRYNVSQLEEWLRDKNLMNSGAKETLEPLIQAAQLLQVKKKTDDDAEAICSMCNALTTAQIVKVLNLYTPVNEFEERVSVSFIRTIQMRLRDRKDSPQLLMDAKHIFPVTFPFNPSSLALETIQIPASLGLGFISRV
Description: MST; unphosphorylated Rab10.

Experiment [4] concerns the target T2, His6 Myosin Va GTD (1,464–1,855) (UniProt Q9Y4I1 1464-1855, labeled with RED-NHS 2nd Generation (amine reactive) dye (NT-647)).
T2 construct: Myosin Va globular tail domain, residues 1,464-1,855; bacterial expression plasmid a gift from Amir Khan; purified as described by Berndsen et al 2019 and Waschbüsch et al 2020; the limits differ from those of the mCherry construct m3 (1,421-1,880, mouse); also called His6-MyoVa GTD; purified MyoVa GTD; source: E. coli BL21 (DE3 pLys), purified (Ni-NTA, Superdex-75)
Description: MST; Monolith NT.115; RED-NHS labelled His6-MyoVa GTD fixed at 100 nM, 16 serial dilutions of the unlabelled Rab/Mst3 reaction mixture (+ATP phosphorylated 2 h at 27°C; -ATP control); 50 mM Hepes pH 7.5, 5% glycerol, 150 mM NaCl, 5 mM MgCl2, 0.1 mM TCEP, GTP, 6 μM BSA, 0.01% Tween-20; 30 min in the dark at 25°C; Mst3 kinase present. Particulars: both partners purified.

For experiment [5], the target named is T1, His6 Myosin Va GTD (1,464–1,855). Briefly: MST; Rab8A phosphorylated by Mst3.
Experiment [6] shares this target. Description: MST; unphosphorylated Rab8A.

What is called Kd is the concentration at which binding is half-saturated. “His6 Rab10-Q63L (1–181) phosphorylated in vitro by Mst3 (from UniProt P61026 1-181) (domain or fragment)”: in experiment [1], the dissociation constant (Kd) was 0.475 µM. Consider “MyoVa GTD-mCherry (1,421–1,880) (domain or fragment)”, for which, in experiment [2], the FLIP in HeLa cells expressing R1441G LRRK2: half-time of fluorescence loss of GTD-mCherry over the region of interest against adjacent cytoplasm; dependent on kinase activity came out at 107 s. In experiment [2], “full-length MyoVa mCherry (natural protein)” had an FLIP in HeLa cells expressing R1441G LRRK2: half-time of fluorescence loss of MyoVa mCherry over the pericentriolar region of interest (adjacent cytoplasm t1/2 = 83 s; retention ameliorated by MLi-2) of 4.53 min.

B1: His6 Rab10-Q63L (1–181), non-phosphorylated (domain or fragment)
chain: MAKKTYDLLFKLLLIGDSGVGKTCVLFRFSDDAFNTTFISTIGIDFKIKTVELQGKKIKLQIWDTAGLERFHTITTSYYRGAMGIMLVYDITNGKSFENISKWLRNIDEHANEDVERMLLGNKCDMDDKRVVPKGKGEQIAREHGIRFFETSAKANINIEKAFLTLAEDILRKTPVKEPNS
In experiment [3], B1 returned a Kd above 18 µM.

B2: His6 Rab8A Q63L phosphorylated in vitro by Mst3 (natural protein)
chain: MAKTYDYLFKLLLIGDSGVGKTCVLFRFSEDAFNSTFISTIGIDFKIRTIELDGKRIKLQIWDTAGLERFRTITTAYYRGAMGIMLVYDITNEKSFDNIRNWIRNIEEHASADVEKMILGNKCDVNDKRQVSKERGEKLALDYGIKFMETSAKANINVENAFFTLARDIKAKMDKKLEGNSPQGSNQGVKITPDQQKRSSFFRCVLL
modifications: phosphorylated by Mst3 (residue not given)
In the case of B2, the “fold weaker binding than pRab10” value in experiment [4] was around 14 fold. In addition, the affinity in experiment [5], expressed as Kd, was 6.6 µM.

B3: His6 Rab8A Q63L, non-phosphorylated (natural protein)
chain: MAKTYDYLFKLLLIGDSGVGKTCVLFRFSEDAFNSTFISTIGIDFKIRTIELDGKRIKLQIWDTAGLERFRTITTAYYRGAMGIMLVYDITNEKSFDNIRNWIRNIEEHASADVEKMILGNKCDVNDKRQVSKERGEKLALDYGIKFMETSAKANINVENAFFTLARDIKAKMDKKLEGNSPQGSNQGVKITPDQQKRSSFFRCVLL
The molecule B3 registered a Kd in experiment [6] above 29 µM.
